The data set is described as follows: soluble on expression in E. coli; label from the status in PepcDB or PDB records.
For the sequence “MSILLVKNAQIVNDDAIFVADILIEDGIIQNVAPNLEAPEGAEVLDAAGKLALPAGIDVYTQVTDSSVDDLSTGCKSAIAGGTGTIVEVVRPRGAESVVSAVKRVKNQLEKSGISCHVALSVAITDFCEQEMSELVKNEGINSFVLDGVSLTDDKLLELFEHVKRLGALIRVVPENKSIVAMLEKKMLKLGVTGPEGFPQSRPESLEADRVSGVCVLGNLASCPISIVQVSSADSLAAIEKARASGALAHAEIASAAVTADGSALFSQDLRFASAHLTDVPLRRGAPDRMIGALSTQPLVVCTSGHRPVNSATRVAAKDFAIAQKGSTGAEERMAVVWERAVRSGRIDAMRFVAVTSTNAAKMFNMYPKKGRIAVGADADLVIWDASGKRVLESSRAQSSQENSMYDGLTVHSVVTATIVGGKIAYQNGEVREAPVAGGFLRLSPNSPYLFSMVGQRDKFANVERVEREASSQQQKPQQNGHHKNSGDFDRNRTKVMESSIDFGGSAANRPRNPPGGRTTGFW”, the “soluble on expression in E. coli” value is “not soluble”.
For “MSAKFQQETLKSRFAQAKVLVVGDVMLDRYWFGDVSRISPEAPVPVAKIGRIDQRAGGAANVARNIASLGGRAGLLSVTGNDEAADALDALMVQDGVASYLMRDKQIATTVKLRVVARNQQLIRLDFEEHPNCEVLEQIKQKYREILPEYDAIIFSDYGKGGLSHISDMIDWAKHAGKTVLIDPKGDDYEKYVGATLITPNRAELKEVVGSWKNESELTEKAQNLRRHLDLTAVLLTRSEEGMTLFSEGEPIYQPTRAQEVYDVSGAGDTVIAGMGLGLAAGCTMPEAMYLANTAAGVVVAKLGTAVCSFAELIKALSGQSTM” the value was “not soluble”; for “MNLFYNPKYVGDVAFLQIEPVEGELNYNKKGNVVEITNEGNVVGYNIFEISKDITIEEKGHIKLTDELVNVFQKRISEAGFDYKLNADLSPKFVVGYVETKDKHPDADKLSVLNVNVGNDTLQIVCGAPNVEAGQKVVVAKVGAVMPSGMVIKDAELRGVASSGMICSMKELNLPNAPEEKGIMVLNDSYEIGQAFFELEHHHHHH”, “soluble”.
For “MSDTSYKLGITKTFPCNYLPDQQERLLIAVDERLHNSESYGWLMTQGFRRSGDQSYRPSCPNCNACQSIRVLTSDFLPSKSQKRSKKRNSHFIIKQSSQLKDSYYPLFENYINTLHQDGSMYPASFQQFESFLSCNLTQQLFIETWAPANEENGPKEDKLVCVAVTDVLSNGLSAVYTFYHPDYKANGLGVFSILTQLSLSQQMSLPYLYLGYQIDECQKMNYKDRYFPFERFIDGQWLINTKPSVNKAKIAKLEHHHHHH” the value was “not soluble”; for “LLRHISDAFAEDPLRVLRVARFAARFHHLGFSIAEQTLELMQKMTACGELNHLTAERIWRETEKALHTESPHIYFQVLRKVNALAILFPEIDQLFGQIQSVKYHLETDRGQHTLLALQQAKLLVKQAHNPTALLWAVLCHDLGKDLISAEMLPHHYQPNVTGIQLTHQLADRLKVPTAVKELALLVNKYHTNCHKIAELDSERVLELFNQLDVWRKPQRLDDFLLACEADARARLGAEYCSYPQA”, “not soluble”.
For “GPGSMLKFRLPYTHKKIGFGDSSRKVNSSLIGPDGTVNYLRGDILLPIWTRPTSTEGRLVVPRGAHRVPYKVAQVENCFFFFNARVREQVHFNHILLPDENLDHHYDAAAEVNCLLKYLQFLHPELREASAAVLRREVKHISTSITAHLRVNFQDVVRRREYLLLKQARSGQSEEEGDESDNEAVDADTAPNCGAQLGSSWETFAKEIIQAASKERARVVWRRNVEETGSDVRSGFWVTTIMRQ” the value was “not soluble”; for “MGSDKIHHHHHHMIVDNDLISIQEARILAENAGRAQRVLATFSQEQLDEIVEAVAEAVGAQAQALADMAYEETDYGNPHDKAVKNRFVCTQVREQLRGMRCVGVIGRDEHARTMDIGVPVGVIAALCPATSPVSTTICKTLIAVKSGNAVVFSPHPRAARSIAAALDIMIDAARAHGLPEGCLSYMSTVTKSGTAELMNHPATSLVMLSGVPGMIGLARCSGKPVIYGGTGNGPAFVERSADIRRAVADIMLSKTFDNGIAPSAEQSIVVDSCIEREVRHALQECGAYFMTDEESLRLAELLFCADGRHKAGMVGVSAPVLARRAGISVPDNVRLLVAERKYVSEADPYSRELLSPVLAYYVEDDWMHACEKCIELLLHERNAHTLVIHSSNEEVILQFALKKPVGRLLVNTPATFGGMGVTTNLFPSMTLGSGSAGRGITADNVSPMNLIYIRKVGYGVRQYTGAQDAAGYGSRVCAAQGVMAPHDSDSRKMQALHRILMEAIGVMDGAAHR”, “not soluble”; for “MNIVVLISGNGSNLQAIIDACKTNKIKGTVRAVFSNKADAFGLERARQAGIATHTLIASAFDSREAYDRALIHEIDMYAPDVVVLAGFMRILSPAFVSHYAGRLLNIHPSLLPKYPGLHTHRQALENGDEEHGTSVHFVTDELDGGPVILQAKVPVFAGDSEDDITARVQTQEHAIYPLVISWFADGRLKMHENAAWLDGQRLPPQGYAADE”, “soluble”.
With “MGHHHHHHSHMHGPKPTVQEIVLELCPCNEIEPVDLVCHEQLGDSDDEIDEPDHAVNHHQHQLLARRDEQQRHTIQCTCCKCNNLLQLVVEASRENLRKLELLFMDSLNFVCPWCATETQ”, the “soluble on expression in E. coli” value is “not soluble”.
Next, “EAVIVVDERDVVIDLNPQAKAIIGTPGAAWIGRPLEDVLPGLIELRDSPTDDIPDRAEITVPVNGEERAYEVRQTPLHRGYGTVTGQLITLTD”: “not soluble”; “MLKGKVALVTGASRGIGRAIAKRLANDGALVAIHYGNRKEEAEETVYEIQSNGGSAFSIGANLESLHGVEALYSSLDNELQNRTGSTKFDILINNAGIGPGAFIEETTEQFFDRMVSVNAKAPFFIIQQALSRLRDNSRIINISSAATRISLPDFIAYSMTKGAINTMTFTLAKQLGARGITVNAILPGFVKTDMNAELLSDPMMKQYATTISAFNRLGEVEDIADTAAFLASPDSRWVTGQLIDVSGGSCL”: “not soluble”.
On to “MVRVGILGASGYGGAELLRLLKAHPEVELVGFSSRKYEGRPLEAAWPQLWDGRLFAAQEEVLERAEVVFLALPNGLSMEIAPEALKAGKRVVDLSGDFRLPPEVYEAWYRIPHKSPDLYREAVYGLPELHREELKGARLVANPGCYVTAATLALAPLAAEGVLKGAFVVGLSGVSGAGREAEGTAFAEVNENLKPYKAGGTHRHIPEMERNLGRILAQGRRVRTHGEARAVRLSFTPHLVPMTRGILVTAEAEVEGAWSQESLEALYRDFYAGEPFVRVLKGLPETKATLGSNRVDVRPLYEERTGRVLVFAALDNLVKGMAGQAVQNLNLMLGLPEETALPKEGLWP”, for which the “soluble on expression in E. coli” value is on record as “soluble”.
For “MDERIQALRKEVDRVNREILRLLSERGRLVQEIGRLQTELGLPHYDPKREEEMLAYLTAENPGPFPDETIRKLFKEIFKASLDLEERQDQKKFLYSKRHKPEPTRVRVKDVVFGEKPLLIAGPCSIESEEQIMATARFLAARGVRVLRGGAFKPRTSPYGFQGLGVEGLKLGRKAADAFGMVFVTEVMDTRDVEVVAEYADILQIGARNMQNFALLKEVGKARRPVLLKRGLSATMEEWFYAAEYILAQGNEQVILAERGIRTFERWTRNTLDLSAVALAKQETHLPVVVDVTHAAGRTDLLAPLARAALAVGADGVHVEVHPNPKVALSDNQQQMDFAQFDRFLEAIRDLLQAP” the value was “soluble”; for “MSLKIAITGASGFVGSHLSSQFGGSHTLLPLGRRELSDPTKLSSLLEGVDWIINLAGAPIIAKWSESYKKVLYSSRIETTRSLLLALKECPTKPSLFTSTSAIGIYDNQGTYAEGDLALAQDFLGKLAKDWEEEALKAQDLGIRTVVFRFGVVLGKGGGMMEKLRLPFSLGLGGVIGDGKQKFSWIHLHDIAKAMEFAWSTPSLSGIYNLTAPSPTTNEAFTKLYGSLIHRPTLLPVPLWALQILFGEGAKVLSDGQAAIPERLLQAGFEFEYPTLEKALKEIISEGHHHHHH”, “soluble”; for “MRLRKKPWARPALEACSFFVINPTEYKGKWREVFGNSNEIWLELGCGKGGFISKLASTNPDKNFIAVDIKDEVLALAMKKIENEYALIGAETKNIRLMAHEIMLIHRMLDENDQIGRIFINFCNPWPKNRHKARRLTHPNQLNQYRTFLAPNGQIWFKTDDTMLFQDSIKYFEQCNFNIVYLTEDLHASGFEGNIETEHERMFLEQGCKIKFLIAEKK”, “soluble”.
As for “MAATITDDIVATVLESIEEKSYEDEKEKAGMIKDEANQFFKDQVYDVAADLYSVAIEIHPTAVLYGNRAQAYLKKELYGSALEDADNAIAIDPSYVKGFYRRATANMALGRFKKALTDYQAVVKVCPNDKDARAKFDECSKIVRRQKFEAAISTDHDKKTVAETLDINAMAIEDSYDGPRLEDKITKEFVLQLIKTFKNQQKLHKKYAFKMLLEFYNYVKSLPTMVEITVPTGKKFTICGDVHGQFYDLCNIFEINGYPSETNPYLFNGDFVDRGSFSVETIFTMIGFKLLYPNHFFMSRGNHESDVMNKMYGFEGEVKAKYTQQMCDMFTETFCWLPLCHLINEKIFVCHGGLFKEDGVTLEDIRKTDRNRQPPDEGIMCDLLWSDPQPINGRSPSKRGVGCQFGPDVTSKWCETNGIEYVVRSHEVKPEGYEMHHNGQCFTVFSAPNYCDQMNNKGAFITITGDNLTPRFTPFDAVPHPKLPPMAYANSLFGFN”, the “soluble on expression in E. coli” value is reported as “not soluble”.
For “MPRLLPVDSCDTEEYTLTEPPRNPQEYLRFVQREASLCPDVVVAQIDPKKLKKQSVNVSITGCLAAPEGFSPSFKWQQQQVSRFSEVRQSVNKHRQHWKAQFLDDNVVMPKTEDEDGWKRFCLGENVCLEIQLKEEDGVNPGLDYVKTGFPPFLSIVSKLSQSTVSAVLEYLINWFEERAFVPQLGRWLYALLACLEKPLLPEAHSLIRQLARRCSAVRANLESKDDDRLSALNLMICIVARYFEQNDLADKE” the value was “soluble”.
For “MKMAKSEDERLAEEWAAALGEDPNAPDIDVDEILAAPLEELKNTAPPITDDERRKLDTIMDIPVTISMEVGRSKISIRNLLQLNQGSVVELDRIAGESLDVMVNGTLIAHGEVVVVNDKFGIRLTDVISQTERIKKLR” the value was “not soluble”.
Next, “MGSDKIHHHHHHMNIRLYSDLHIEFEDFHAPADGADVVVLAGDVDVGVRGIDWIVRQEFSCPVIYVMGNHEYYNHRYPSLLGKVKQHAAGKNIHILENESVEIDGVRFHGATLWADFKLFGDPRVAGYECQQVMRDYKKIRKEPSYSKLRSIDVASIHNQSLSWLAESLASSKSSVNVVVTHHAPSMLSVPAYYQDNLVTAAYASDLSAFIDEHKPDYWLHGHLHTSSNYYLGACQVLANPKGYKGEVNESFDPSFSLTLAKRGV”: “not soluble”.
In the case of “MGGSHHHHHHGMASALAAVDIRDNLLGISWVDSSWIPILNSGSVLDYFSERSNPFYDRTCNNEVVKMQRLTLEHLNQMVGIEYILLHAQEPILFIIRKQQRQSPAQVIPLADYYIIAGVIYQAPDLGSVINSRVLTAVHGIQSAFDEAMSYCRYHPSKGYWWHFKDHEEQDKVRPKAKRKEEPSSIFQRQRVDALLLDLRQKFPPKFVQLKPGEKPVPVDQTKKEAEPIPETVKPEEKETTKNVQQTVSAKGPPEKRMRLQ”, the “soluble on expression in E. coli” value was “not soluble”.
On to “MNFMEIGTPLFEGAKKLLWLGGGELGKEMVIEAQRMGIETVVVDRYDMAPAMHVAHRKYVVNMLDGNAIKSIIKKENPDAIITEIEAINTDALLELESEGYKVIPNAKAVKICMNRIELRKLAAEKVKVPTTQYGFAENPEEVKKICKDIGYPCIIKPEMSSSGHGHEVVYNESEVEQKFKEAITHARGKSEQVIVEEYVKIDRELTVLTYRYLDDKGVVTKTITPIEHQRPSDVYYYVESWHPSTVDKDIIERAQEYATRVVNELGGFGIFGVEIIVSGNRVLFSEVSPRPHDTGLVTMASLDINEFQIHVRSALGLPTPEVKIVSPAAAHVILANNEGWAPKFLNVEKALQIPGVQIRLFGKPSTYYKRRMGVVLATGNTVEEAKEKARKAASLVLVT”, for which the “soluble on expression in E. coli” value is on record as “soluble”.
